Data set [1] concerns CELF2 (mouse). Put plainly: pull-down/MS. Conditions: Pull-down: 20 mM Tris-HCl pH 7.5, 200 mM NaCl, 6 mM EDTA, 5 mM KF, 5 mM beta-glycerophosphate, 4 h at 4 C, 100 ug nuclear extract; EMSA: BersinBio RNA-EMSA …. For orientation: A gel shift assay detects complexes by their altered migration in electrophoresis.
The test system of data set [2] is hnRNP H1 (B cell nuclear extract) (mouse). Briefly: pull-down/MS. Conditions: Pull-down: 20 mM Tris-HCl pH 7.5, 200 mM NaCl, 6 mM EDTA, 5 mM KF, 5 mM beta-glycerophosphate, 4 h at 4 C, 100 ug nuclear extract; EMSA: BersinBio RNA-EMSA ….
For data set [3], the system named is hnRNP H2 (mouse). Briefly: pull-down/MS. To be noted: Pull-down: 20 mM Tris-HCl pH 7.5, 200 mM NaCl, 6 mM EDTA, 5 mM KF, 5 mM beta-glycerophosphate, 4 h at 4 C, 100 ug nuclear extract; EMSA: BersinBio RNA-EMSA ….
Data set [4] concerns hnRNP H3 (mouse). Briefly: pull-down/MS. Conditions: Pull-down: 20 mM Tris-HCl pH 7.5, 200 mM NaCl, 6 mM EDTA, 5 mM KF, 5 mM beta-glycerophosphate, 4 h at 4 C, 100 ug nuclear extract; EMSA: BersinBio RNA-EMSA ….
Data set [5] concerns the target T1, hnRNP F (mouse, UniProt Q9Z2X1 1-415).
T1 sequence: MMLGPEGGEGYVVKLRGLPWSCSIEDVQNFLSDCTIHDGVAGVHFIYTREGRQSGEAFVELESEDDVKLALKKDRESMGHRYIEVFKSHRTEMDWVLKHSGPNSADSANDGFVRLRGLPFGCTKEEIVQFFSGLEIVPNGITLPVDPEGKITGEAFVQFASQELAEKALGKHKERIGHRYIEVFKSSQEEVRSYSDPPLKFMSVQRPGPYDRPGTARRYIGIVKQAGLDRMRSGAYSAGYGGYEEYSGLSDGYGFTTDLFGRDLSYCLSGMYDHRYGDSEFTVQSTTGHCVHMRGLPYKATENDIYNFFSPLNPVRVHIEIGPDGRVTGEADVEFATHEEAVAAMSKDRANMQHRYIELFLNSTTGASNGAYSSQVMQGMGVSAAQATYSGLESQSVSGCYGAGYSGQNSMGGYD
Briefly: EMSA; Pull-down: 20 mM Tris-HCl pH 7.5, 200 mM NaCl, 6 mM EDTA, 5 mM KF, 5 mM beta-glycerophosphate, 4 h at 4 C, 100 ug nuclear extract; EMSA: BersinBio RNA-EMSA kit, 12.5 nM biotin-RNA, 200 ng protein. Conditions: protein: recombinant, tags: His.

We go through 3 molecules from PMC10063658, “The RNA-binding protein hnRNP F is required for the germinal center B cell response”.

Regarding Cd40 exon 6 sense RNA, the binding signal (fold LFQ (sense/antisense)) in data set [1], in data set [2], in data set [3] and in data set [4] was above 5 throughout.

For the molecule UCAGGAGAGGAAAGGGAGGGAGGGU (ssRNA) [I7-WT], the binding result in data set [5] (label: 5' biotin) is listed as “binds”.

Regarding UCCAGGGGAGAAUGGCCUUGCCAAGUCUUUGGGAAGCAGGGAACU (ssRNA) [I6-WT], the binding result in data set [5] is “binds”.
